Results published in patent publication US20200383981.

Test system: wild-type human IDO1

human Src Y530F was tested, and the “tyrosine phosphorylation of human IDO1 Tyr249 (ITIM2), western blot of SW837 IDO1WT lysate” value was “Expression of human Src Y530F in SW837 IDO1WT cells was shown to enhance tyrosine phosphorylation of human IDO1 Tyr249 (ITIM2)”.
